From patent US20180155451A1 (published 2018) come the findings set out here.

B1: GpH7-A5/GpH7-B3 variant K326_15Y/GpL16-k0 (He Ab) (antibody, human IgG1, kappa)
heavy 1: not shown
heavy 2: not shown
light: DIVMTQSPLSLPVTPGEPASISCQASESLVHSNRNTYLHWYLQKPGQSPQLLIYKVSNRFSGVPDRFSGSGSGTDFTLKISRVEAEDVGVYYCSQNTHVPPTFGQGTKVEIERTVAAPSVFIFPPSDEQLKSGTASVVCLLNNFYPREAKVQWKVDNALQSGNSQESVTEQDSKDSTYSLSSTLTLSKADYEKHKVYACEVTHQGLSSPVTKSFNRGEC
notes: He Ab: alteration only in the GpH7-B3 chain
B2: GpH7-A5/GpH7-B3 variant P271_12R/GpL16-k0 (He Ab) (antibody, human IgG1, kappa)
heavy 1: not shown
heavy 2: not shown
light: DIVMTQSPLSLPVTPGEPASISCQASESLVHSNRNTYLHWYLQKPGQSPQLLIYKVSNRFSGVPDRFSGSGSGTDFTLKISRVEAEDVGVYYCSQNTHVPPTFGQGTKVEIERTVAAPSVFIFPPSDEQLKSGTASVVCLLNNFYPREAKVQWKVDNALQSGNSQESVTEQDSKDSTYSLSSTLTLSKADYEKHKVYACEVTHQGLSSPVTKSFNRGEC
notes: as for B1
B3: GpH7-A5/GpH7-B3 variant Q295_07I/GpL16-k0 (He Ab) (antibody, human IgG1, kappa)
heavy 1: not shown
heavy 2: not shown
light: DIVMTQSPLSLPVTPGEPASISCQASESLVHSNRNTYLHWYLQKPGQSPQLLIYKVSNRFSGVPDRFSGSGSGTDFTLKISRVEAEDVGVYYCSQNTHVPPTFGQGTKVEIERTVAAPSVFIFPPSDEQLKSGTASVVCLLNNFYPREAKVQWKVDNALQSGNSQESVTEQDSKDSTYSLSSTLTLSKADYEKHKVYACEVTHQGLSSPVTKSFNRGEC
notes: as for B1
B4: GpH7-A5/GpH7-B3 variant Q295_02A/GpL16-k0 (He Ab) (antibody, human IgG1, kappa)
heavy 1: not shown
heavy 2: not shown
light: DIVMTQSPLSLPVTPGEPASISCQASESLVHSNRNTYLHWYLQKPGQSPQLLIYKVSNRFSGVPDRFSGSGSGTDFTLKISRVEAEDVGVYYCSQNTHVPPTFGQGTKVEIERTVAAPSVFIFPPSDEQLKSGTASVVCLLNNFYPREAKVQWKVDNALQSGNSQESVTEQDSKDSTYSLSSTLTLSKADYEKHKVYACEVTHQGLSSPVTKSFNRGEC
notes: as for B1
B5: GpH7-A5/GpH7-B3 variant Q295_05P/GpL16-k0 (He Ab) (antibody, human IgG1, kappa)
heavy 1: not shown
heavy 2: not shown
light: DIVMTQSPLSLPVTPGEPASISCQASESLVHSNRNTYLHWYLQKPGQSPQLLIYKVSNRFSGVPDRFSGSGSGTDFTLKISRVEAEDVGVYYCSQNTHVPPTFGQGTKVEIERTVAAPSVFIFPPSDEQLKSGTASVVCLLNNFYPREAKVQWKVDNALQSGNSQESVTEQDSKDSTYSLSSTLTLSKADYEKHKVYACEVTHQGLSSPVTKSFNRGEC
notes: as for B1
B6: GpH7-A5/GpH7-B3 variant P271_20W/GpL16-k0 (He Ab) (antibody, human IgG1, kappa)
heavy 1: not shown
heavy 2: not shown
light: DIVMTQSPLSLPVTPGEPASISCQASESLVHSNRNTYLHWYLQKPGQSPQLLIYKVSNRFSGVPDRFSGSGSGTDFTLKISRVEAEDVGVYYCSQNTHVPPTFGQGTKVEIERTVAAPSVFIFPPSDEQLKSGTASVVCLLNNFYPREAKVQWKVDNALQSGNSQESVTEQDSKDSTYSLSSTLTLSKADYEKHKVYACEVTHQGLSSPVTKSFNRGEC
notes: as for B1
B7: GpH7-A5/GpH7-B3 variant P271_11K/GpL16-k0 (He Ab) (antibody, human IgG1, kappa)
heavy 1: not shown
heavy 2: not shown
light: DIVMTQSPLSLPVTPGEPASISCQASESLVHSNRNTYLHWYLQKPGQSPQLLIYKVSNRFSGVPDRFSGSGSGTDFTLKISRVEAEDVGVYYCSQNTHVPPTFGQGTKVEIERTVAAPSVFIFPPSDEQLKSGTASVVCLLNNFYPREAKVQWKVDNALQSGNSQESVTEQDSKDSTYSLSSTLTLSKADYEKHKVYACEVTHQGLSSPVTKSFNRGEC
notes: as for B1
B8: GpH7-A5/GpH7-B3 variant P271_06M/GpL16-k0 (He Ab) (antibody, human IgG1, kappa)
heavy 1: not shown
heavy 2: not shown
light: DIVMTQSPLSLPVTPGEPASISCQASESLVHSNRNTYLHWYLQKPGQSPQLLIYKVSNRFSGVPDRFSGSGSGTDFTLKISRVEAEDVGVYYCSQNTHVPPTFGQGTKVEIERTVAAPSVFIFPPSDEQLKSGTASVVCLLNNFYPREAKVQWKVDNALQSGNSQESVTEQDSKDSTYSLSSTLTLSKADYEKHKVYACEVTHQGLSSPVTKSFNRGEC
notes: as for B1
B9: GpH7-A5/GpH7-B3 variant P271_07I/GpL16-k0 (He Ab) (antibody, human IgG1, kappa)
heavy 1: not shown
heavy 2: not shown
light: DIVMTQSPLSLPVTPGEPASISCQASESLVHSNRNTYLHWYLQKPGQSPQLLIYKVSNRFSGVPDRFSGSGSGTDFTLKISRVEAEDVGVYYCSQNTHVPPTFGQGTKVEIERTVAAPSVFIFPPSDEQLKSGTASVVCLLNNFYPREAKVQWKVDNALQSGNSQESVTEQDSKDSTYSLSSTLTLSKADYEKHKVYACEVTHQGLSSPVTKSFNRGEC
notes: as for B1
B10: GpH7-A5/GpH7-B3 variant Q295_04F/GpL16-k0 (He Ab) (antibody, human IgG1, kappa)
heavy 1: not shown
heavy 2: not shown
light: DIVMTQSPLSLPVTPGEPASISCQASESLVHSNRNTYLHWYLQKPGQSPQLLIYKVSNRFSGVPDRFSGSGSGTDFTLKISRVEAEDVGVYYCSQNTHVPPTFGQGTKVEIERTVAAPSVFIFPPSDEQLKSGTASVVCLLNNFYPREAKVQWKVDNALQSGNSQESVTEQDSKDSTYSLSSTLTLSKADYEKHKVYACEVTHQGLSSPVTKSFNRGEC
notes: as for B1
B11: GpH7-A5/GpH7-B3 variant K334_10E/GpL16-k0 (He Ab) (antibody, human IgG1, kappa)
heavy 1: not shown
heavy 2: not shown
light: DIVMTQSPLSLPVTPGEPASISCQASESLVHSNRNTYLHWYLQKPGQSPQLLIYKVSNRFSGVPDRFSGSGSGTDFTLKISRVEAEDVGVYYCSQNTHVPPTFGQGTKVEIERTVAAPSVFIFPPSDEQLKSGTASVVCLLNNFYPREAKVQWKVDNALQSGNSQESVTEQDSKDSTYSLSSTLTLSKADYEKHKVYACEVTHQGLSSPVTKSFNRGEC
notes: as for B1
B12: GpH7-A5/GpH7-B3 variant P271_04F/GpL16-k0 (He Ab) (antibody, human IgG1, kappa)
heavy 1: not shown
heavy 2: not shown
light: DIVMTQSPLSLPVTPGEPASISCQASESLVHSNRNTYLHWYLQKPGQSPQLLIYKVSNRFSGVPDRFSGSGSGTDFTLKISRVEAEDVGVYYCSQNTHVPPTFGQGTKVEIERTVAAPSVFIFPPSDEQLKSGTASVVCLLNNFYPREAKVQWKVDNALQSGNSQESVTEQDSKDSTYSLSSTLTLSKADYEKHKVYACEVTHQGLSSPVTKSFNRGEC
notes: as for B1
B13: GpH7-A5/GpH7-B3 variant P271_13S/GpL16-k0 (He Ab) (antibody, human IgG1, kappa)
heavy 1: not shown
heavy 2: not shown
light: DIVMTQSPLSLPVTPGEPASISCQASESLVHSNRNTYLHWYLQKPGQSPQLLIYKVSNRFSGVPDRFSGSGSGTDFTLKISRVEAEDVGVYYCSQNTHVPPTFGQGTKVEIERTVAAPSVFIFPPSDEQLKSGTASVVCLLNNFYPREAKVQWKVDNALQSGNSQESVTEQDSKDSTYSLSSTLTLSKADYEKHKVYACEVTHQGLSSPVTKSFNRGEC
notes: as for B1
B14: GpH7-A5/GpH7-B3 variant K326_16H/GpL16-k0 (He Ab) (antibody, human IgG1, kappa)
heavy 1: not shown
heavy 2: not shown
light: DIVMTQSPLSLPVTPGEPASISCQASESLVHSNRNTYLHWYLQKPGQSPQLLIYKVSNRFSGVPDRFSGSGSGTDFTLKISRVEAEDVGVYYCSQNTHVPPTFGQGTKVEIERTVAAPSVFIFPPSDEQLKSGTASVVCLLNNFYPREAKVQWKVDNALQSGNSQESVTEQDSKDSTYSLSSTLTLSKADYEKHKVYACEVTHQGLSSPVTKSFNRGEC
notes: as for B1
B15: GpH7-A5/GpH7-B3 variant P271_03V/GpL16-k0 (He Ab) (antibody, human IgG1, kappa)
heavy 1: not shown
heavy 2: not shown
light: DIVMTQSPLSLPVTPGEPASISCQASESLVHSNRNTYLHWYLQKPGQSPQLLIYKVSNRFSGVPDRFSGSGSGTDFTLKISRVEAEDVGVYYCSQNTHVPPTFGQGTKVEIERTVAAPSVFIFPPSDEQLKSGTASVVCLLNNFYPREAKVQWKVDNALQSGNSQESVTEQDSKDSTYSLSSTLTLSKADYEKHKVYACEVTHQGLSSPVTKSFNRGEC
notes: as for B1
B16: GpH7-A5/GpH7-B3 variant Q295_03V/GpL16-k0 (He Ab) (antibody, human IgG1, kappa)
heavy 1: not shown
heavy 2: not shown
light: DIVMTQSPLSLPVTPGEPASISCQASESLVHSNRNTYLHWYLQKPGQSPQLLIYKVSNRFSGVPDRFSGSGSGTDFTLKISRVEAEDVGVYYCSQNTHVPPTFGQGTKVEIERTVAAPSVFIFPPSDEQLKSGTASVVCLLNNFYPREAKVQWKVDNALQSGNSQESVTEQDSKDSTYSLSSTLTLSKADYEKHKVYACEVTHQGLSSPVTKSFNRGEC
notes: as for B1

T1 sequence (P12314 16-292): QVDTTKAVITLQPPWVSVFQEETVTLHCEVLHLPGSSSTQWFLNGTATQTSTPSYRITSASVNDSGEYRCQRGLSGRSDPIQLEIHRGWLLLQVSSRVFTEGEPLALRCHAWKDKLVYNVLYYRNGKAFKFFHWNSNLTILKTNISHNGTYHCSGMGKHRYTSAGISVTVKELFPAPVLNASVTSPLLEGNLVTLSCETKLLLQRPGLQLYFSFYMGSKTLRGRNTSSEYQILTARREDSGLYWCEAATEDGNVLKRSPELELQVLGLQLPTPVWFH

The experiment concerns the target T1, FcγRIa extracellular domain with C-terminal His tag (human, UniProt P12314 16-292).
T1 construct: extracellular domain; Expressed in FreeStyle293 cells; analyte in Biacore; also called FcgRI; FcgRIa
As to the kind of experiment: SPR Biacore, antibody captured, FcγRIa analyte; vs GpH7-A5/GpH7-B3/GpL16-k0 = 100.
As to B1, the He/Con_1a is 106 relative (control = 100).

Take B2: the He/Con_1a was 102 relative (control = 100).

Regarding B3, the He/Con_1a is 103 relative (control = 100).

For B4, the He/Con_1a is 104 relative (control = 100).

For B5, the He/Con_1a was 103 relative (control = 100).

B6: the He/Con_1a is 103 relative (control = 100).

For the molecule B7, the He/Con_1a is 103 relative (control = 100).

Consider B8, for which the He/Con_1a is 102 relative (control = 100).

For the molecule B9, the He/Con_1a is 102 relative (control = 100).

As to B10, the He/Con_1a is 102 relative (control = 100).

For the molecule B11, the He/Con_1a is 110 relative (control = 100).

Regarding B12, the He/Con_1a is 102 relative (control = 100).

With B13, the He/Con_1a was 102 relative (control = 100).

Regarding B14, the He/Con_1a is 103 relative (control = 100).

As for B15, the He/Con_1a was 102 relative (control = 100).

On to B16, for which the He/Con_1a is 104 relative (control = 100).
